The record followed here is article PMC6314547 (The Journal of Cell Biology, 2019).

This data set deals with the molecule itself. The data set is described as follows: SEC-MALS.

B1: FAM92A1 BAR domain (1–219 aa) (domain or fragment, UniProt A1XBS5 1-219, looked up)
chain: MMRRTLENRNAQTKQLQTAVSNVEKHFGELCQIFAAYVRKTARLRDKADLLVNEINAYAATETPHLKLGLMNFADEFAKLQDYRQAEVERLEAKVVEPLKTYGTIVKMKRDDLKATLTARNREAKQLTQLERTRQRNPSDRHVISQAETELQRAAMDASRTSRHLEETINNFERQKMKDIKTIFSEFITIEMLFHGKALEVYTAAYQNIQNIDEDEDLE
One may read the stoichiometry N as a count of units in the complex or per binding partner. B1: the “stoichiometry N” value stood at 2.
